PMC6127144

Biological target: human plasma membrane Ca2+-ATPase 1, full-length human PMCA1d (human) (UniProt P20020)
Sequence of UniProt P20020 (P20020 other isoform, or with tags, fused parts or gaps): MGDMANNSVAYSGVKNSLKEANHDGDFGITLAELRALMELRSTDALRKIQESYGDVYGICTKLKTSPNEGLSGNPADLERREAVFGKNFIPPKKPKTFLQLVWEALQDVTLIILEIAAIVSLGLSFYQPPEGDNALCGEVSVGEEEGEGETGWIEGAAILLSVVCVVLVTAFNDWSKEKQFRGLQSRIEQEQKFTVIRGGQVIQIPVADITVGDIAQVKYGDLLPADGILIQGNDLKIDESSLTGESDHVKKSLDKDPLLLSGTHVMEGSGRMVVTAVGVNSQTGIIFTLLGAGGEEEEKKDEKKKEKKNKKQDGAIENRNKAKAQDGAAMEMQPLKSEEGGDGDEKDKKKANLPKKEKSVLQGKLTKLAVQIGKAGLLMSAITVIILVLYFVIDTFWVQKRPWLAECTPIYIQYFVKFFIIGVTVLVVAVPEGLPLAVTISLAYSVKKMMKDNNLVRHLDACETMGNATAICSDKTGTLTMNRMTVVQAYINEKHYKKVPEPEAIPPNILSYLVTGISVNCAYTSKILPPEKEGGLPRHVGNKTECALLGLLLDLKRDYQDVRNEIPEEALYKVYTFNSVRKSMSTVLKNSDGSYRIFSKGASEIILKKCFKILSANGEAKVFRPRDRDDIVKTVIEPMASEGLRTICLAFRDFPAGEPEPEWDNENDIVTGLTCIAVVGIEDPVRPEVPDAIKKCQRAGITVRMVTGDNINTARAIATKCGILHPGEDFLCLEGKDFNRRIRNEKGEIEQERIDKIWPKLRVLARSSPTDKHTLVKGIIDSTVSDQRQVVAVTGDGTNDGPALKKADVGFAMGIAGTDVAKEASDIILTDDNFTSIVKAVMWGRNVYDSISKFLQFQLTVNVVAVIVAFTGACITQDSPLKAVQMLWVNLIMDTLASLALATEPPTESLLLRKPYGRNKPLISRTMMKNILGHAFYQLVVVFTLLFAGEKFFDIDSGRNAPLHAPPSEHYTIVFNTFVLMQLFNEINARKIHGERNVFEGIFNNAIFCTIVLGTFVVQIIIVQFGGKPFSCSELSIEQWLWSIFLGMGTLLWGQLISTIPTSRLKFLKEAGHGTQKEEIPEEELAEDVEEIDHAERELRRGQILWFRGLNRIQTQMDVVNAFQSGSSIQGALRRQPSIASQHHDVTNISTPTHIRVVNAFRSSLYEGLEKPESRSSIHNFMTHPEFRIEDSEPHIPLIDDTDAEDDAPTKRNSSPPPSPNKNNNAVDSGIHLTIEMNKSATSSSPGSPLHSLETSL

## neuroplastin (natural protein)
  Vmax of the ATPase activity of purified hPMCA1-NPTN proteins (nmol mg^-1 min^-1): 326
